Reference: the nanobody polyreactivity screen of Harvey et al. (2022)

Assay: yeast display, Sf9 membrane polyspecificity reagent, FACS + sequencing; frameworks hold sequencing errors
Summary of the method: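 Sorting gates, low and high (top ~1%), were placed on anti-HA fluorescence to track expression and on streptavidin fluorescence to track reagent binding. A clone's polyreactivity label is taken from the gate it came out of. The reagent was 10% biotinylated, detergent-solubilized Sf9 membrane, applied for 1 hour at 4 °C to galactose-induced yeast display cells.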

| Sequence | polyreactivity (PSR sort gate) |
| --- | --- |
| QVQLVESGGGLVQAGGSLRLSCAASGLIFSYNAMGWYRQAHGKETELVATIRRVGSTNYADSVKGRFTISRDNAKNTVYLQMNSLQPDDTAVYYCAAVYVRIGTRYGYWGQGTQVTVSS | high polyreactivity |
| QVQLVESGGGLVQAGGSLRLSCAASGLIFSYYTMGWYRQAPGKERELVAAISSAGGSTYYADSVKGRFTISRDNAKNTVYLQMNSLKPEDTAVYYCAARYSGRPYGPPGYLWKDYYWGQGTQVTVSS | high polyreactivity |
| QVQLVESGGGLVQAGGSLRLSCAASGLIFTDYDMGWYRQAPGKERELVAAISTSGGSTYYADSVKGRFTISRDNAKNPVYLQMNSLKPAETAVYYCAAEYVYPYWNGFDYWGQGTQVTVSS | low polyreactivity |
| QVQLVESGGGLVQAGGSLRLSCAASGLIFTGYVMGWYRQAPGKERELVAVIRSGDSTYYADSVKGRFTISRDNAKNTVYLQMNSLKPEDTAVYYCAKYDTGGRAHDYWGQGTQVTVSS | low polyreactivity |
| QVQLVESGGGLVQAGGSLRLSCAASGLIFTVNAMGWYRQAPGKDRELVAAISGGDSTNYADSVKGRFTISRDNAKNTVYLQMNSLKPEDTAVYYCAVRGRAQYTSRRYGYWGQGTQVTVSS | high polyreactivity |
| QVQLVESGGGLVQAGGSLRLSCAASGLIFTWNAMGWYRQATGKERELVAAISTGGSTSYADSVKGRFTISRDNAKNTVYLQMNSLKPEDTAVYYCARDSSIWSHGSWYDYWGQGTQVTVSS | low polyreactivity |
| QVQLVESGGGLVQAGGSLRLSCAASGLIFTYYAMGWYRQAPGKERELVAAISGRGGSTYYADSVKGRFTISRDNAKNTVYLQMNSLKPEDTAVYYCAAVRWAGYVSDYGYWGQGTQVTVSS | high polyreactivity |
| QVQLVESGGGLVQAGGSLRLSCAASGLIFTYYAMGWYRQAPGKEREMVAAISSSGVNTYYADSVKGRFTISRDNAKNTVYLQMNSLKPEYTAVYYCAAELQPSPVGGIIQYGFDYWGQGTQVTVSS | low polyreactivity |
| QVQLVESGGGLVQAGGSLRLSCAASGLIFVGNAMGWYRQAPGKERELVAAISASTDNTYYADSVKGRFTISRDNAKNTVYLQMISLKPEDTAVYYCNAEQSRNSGKHDYWGQGTQVTVSS | low polyreactivity |
| QVQLVESGGGLVQAGGSLRLSCAASGLIFVINARGWYRQAPGKERELVAAIDYSGGSTYYADSVKGRFTISRDNAKNTVYLQMNSLKPEDTAVYYCAASKIGYWGDYFRYYYWGQGTQVTVSS | low polyreactivity |
| QVQLVESGGGLVQAGGSLRLSCAASGLIFVNAMGWYRQAPGKEREFVAAITYSTGSTYYADSVKGRFTISRDIAKNTVYLQMNSLKPEDTAVYYCAKDRSGHGTERDYWGQGTQVTVSS | low polyreactivity |
| QVQLVESGGGLVQAGGSLRLSCAASGLIFVPYAMGWYRQAPGKERELVATISARGASTYYADSVKGRFTISRDNAKNTVYLQMNSLKPEDTAVYYCATRNYGRASYDYWGQGTQVTVSS | high polyreactivity |
| QVQLVESGGGLVQAGGSLRLSCAASGLIFVSNAMGWYRQAPGKERELVAAISWSGSRTYYADSVKGRFTISRENAKNTVYLQMNSLKPEDTAVYYCNAVRRGLPVVGAYDYWGQGTQVTVSS | high polyreactivity |
| QVQLVESGGGLVQAGGSLRLSCAASGLIFVSYAMGWYRQAPGKERELVAAISSGGSTYYADSVKGRFTISRDNAKNTVYLQINSLKPEDTAVYYCAAEYVFRGYVGYDYWGQGTQVTVSS | low polyreactivity |
| QVQLVESGGGLVQAGGSLRLSCAASGLIFVSYAMGWYRQAPGKERELVASITYSGGGTYYADSVKGRFTISRDYAKNTVYLQMNSLKPEDNAVYYCNADVCWCYSVYREYCMDYWGQGTQVTVSS | low polyreactivity |
| QVQLVESGGGLVQAGGSLRLSCAASGLIFVVYAMGWYRQAPGKERELVAVISSDGGTYYADSVKGRFTISRDNAKNTVYLQMNSLKPEDTAVYYCAALGYPNARTSRISYFRYDYWGQGTQVTVSS | high polyreactivity |
| QVQLVESGGGLVQAGGSLRLSCAASGLIFVWYDMGWYRQAPGKERELVATISSDGITNYADSVKGLFTISRDNAKNTVYLQMNSLKPEDTAVSYCNAGPDDYVGYWGKYDYWGQGTQVTVSS | low polyreactivity |
| QVQLVESGGGLVQAGGSLRLSCAASGLIFWHYAMGWYRQAPGKERELVAAISRRGGSTYYADSVKGRFTISRDNAKNTVYLQMNSLKPEDTAVYYCAADVWGSSAQRGWRKDYYWGQGTQVTVSS | high polyreactivity |
| QVQLVESGGGLVQAGGSLRLSCAASGLIFYAKAMGWYRQAPGKEREFVAAITYRGGSTYYADSVKGRFTISRDKAKNTVYLQMNCLKPEATAVYYCATVTDRYPYIRRYHFPYYYWGQGTQVTVSS | high polyreactivity |
| QVQLVESGGGLVQAGGSLRLSCAASGLIFYAYAMGWYRQAPGKERELVAGIWIDDSTYYADSVKGRFTISRDNAKNTVYLQMNSLKPEDTAVYYCNKRVRSYYLYRGDYWGQGTQVTVSS | low polyreactivity |
| QVQLVESGGGLVQAGGSLRLSCAASGLIFYDNMGWSRQAPGKERELVAAISSSGGSTSYADSVKGRFTISRDNAKNTVYLQMNSLKPADTAVYYCAADSYPAYLGFVGFDYWGQGTQVTVSS | low polyreactivity |
| QVQLVESGGGLVQAGGSLRLSCAASGLIFYDNMGWYRQAPGKERELVAAISSSGGSTSYADSVKGRFTISRDNAKNTVYLQMISLKPEDTAVYYCAADSSPAFLGFVGFEYWGQGTEVTVSS | low polyreactivity |

| Sequence | polyreactivity (PSR sort gate) |
| --- | --- |
| QVQLVESGGGLVQAGGSLRLSCAASGLIFYDNMGWYRQAPGKERELVAAISSSGGSTSYADSVKGRFTISRDNAKNTVYLQMNSLKPVDTAVYYCAADSYPAYLGFVGFDYWGQGTQVTVSS | low polyreactivity |
| QVQLVESGGGLVQAGGSLRLSCAASGLIFYGNAMGWYRQEPGKERELVAAISWSGGNTSYADSVKGRFTISRDNAKNTVYLQMNSLKPEVTAVYYCNADSLPSVERYGYWGQGTQVTVSS | low polyreactivity |
| QVQLVESGGGLVQAGGSLRLSCAASGLIFYGYVMGWYRHAPGKERELVAGISRNYGSTYYADSVKGRFTISRDNAKHTVYLQMNSLKPEDTAVYYCAALTFEAWAGEDYWGQGTQVTVTS | low polyreactivity |
| QVQLVESGGGLVQAGGSLRLSCAASGLIFYKYAMGWYRQAPGKERELVAAITRGGGSTSYADSVKGRFTISRDNAKNTVYLQMNCLKPEDTAVYYCNAAPYTRALQGEFDYWGQGTQVTVSS | high polyreactivity |
| QVQLVESGGGLVQAGGSLRLSCAASGLIFYKYAMGWYRQAPGKERELVASISTGGGSTYYADSVKGRFTISRDNAKNTVYLQMNSLKPEDTAVYYCAARWWSRFRGSHSLYDYWGQGTQVTVSS | high polyreactivity |
| QVQLVESGGGLVQAGGSLRLSCAASGLIFYLYAMGWYRQAPGKEREFVAGINWSGGNTYADSVKGRFTISRDNAKNTVYLQLNSLKPEDTAVYYCAADSLIYTHPYQYDYWGQGTQVTVSS | low polyreactivity |
| QVQLVESGGGLVQAGGSLRLSCAASGLIFYLYTMGWYRQAPGKERELVAAISRSGTITYYADSVKGRFTISRDNAKNSVYLQMNSLKPEDTAVYYCAATYTYKIGTRYDYWGQGTQVNVSS | high polyreactivity |
| QVQLVESGGGLVQAGGSLRLSCAASGLIFYQYAMGWYRQAPGKESELVAAISRSGGRTNYADSVKGRFTISRDNAKNTVYLQMNSLKPEDTAVYYCNAVHYFLYGYYSWGQGTQVSVSS | high polyreactivity |
| QVQLVESGGGLVQAGGSLRLSCAASGLIFYRNAMGWYRQAPGKERELVAAIRFSTGSTYYADSVKGRFTISRDNAKNSVYLQMNSLKPEDSAVYCCAAALPGYGDYYYWGQGTQVTVSS | high polyreactivity |
| QVQLVESGGGLVQAGGSLRLSCAASGLIFYRYAMGWYRQAPGKERELVAAISSSGVSTYYADSVKGRFTISRDNAKNTVYLQMNSLIPEDTAVYYCAADVGSRSYSYDYWGQGTQVTVSS | low polyreactivity |
| QVQLVESGGGLVQAGGSLRLSCAASGLIFYRYTMGWYRQAPGKERELVAAISWSGGRTYYADSVKGRFTISRDNAKNTVYLQMNSLKPEDTAVYYCNAVYYYTRASVPYDYWGQGTQVTVSS | high polyreactivity |
| QVQLVESGGGLVQAGGSLRLSCAASGLIFYVYARGWYRQAPGKERELVAAIRYRGGTTHYADSVKGRFTISRDNAKNTVYLQMNSLKPEDTAVYYCAADGYVYRSGRRYDYWGQGTQVTVSS | high polyreactivity |
| QVQLVESGGGLVQAGGSLRLSCAASGLIFYWYAMGWYRQAPGKERELVAAITWSGGITYYADSVKGRFTISRDNAKNTVYLQMNSLKPEDTAVYYCAADDDYGDVTYDYWGQGTQVTVSS | low polyreactivity |
| QVQLVESGGGLVQAGGSLRLSCAASGLIIAHYAMGWYRQAPVKERELVAAITSGSSTYYADSVKGRFTISRDNAKNNVYLQMNSLKPEDTAVYYCAAKETHSAYRSSGNYWGQGTQVTVSS | low polyreactivity |
| QVQLVESGGGLVQAGGSLRLSCAASGLIIDGYAMGWSRQAPGKERELVATITVSGTSTYYADSVKGRFTISRDNAKNTVYLQMNSLKPEDTAVYYCDTDRNYGYYFVEYDHDYWGQGTQVTVSS | low polyreactivity |
| QVQLVESGGGLVQAGGSLRLSCAASGLIIGYNAMGLYRQAPGKERELVAAISRSGTHTYYADSVKGRFTISRDNAKNTFNLQMNSLIPEDTAVYYCNATNRRWHRPYSTYWYYYWGQGTQVTVSS | high polyreactivity |
| QVQLVESGGGLVQAGGSLRLSCAASGLIITAYAMGWYRQAPGKERELVAAITGSGGRTYYADSVKGRFTISRDNAKNTVYLQMNSLKPEDTAVYYCAADFPARGSSTSDYWGQGTQVTVSS | high polyreactivity |
| QVQLVESGGGLVQAGGSLRLSCAASGLIIWYYAMGWYRQAPGKERELVAAISRSGGRTYYADSVKGRFTISRDNAKNTVYLQMNSLKPEDTAVNYCNADVYRGYDYWGQGTQVTVSS | high polyreactivity |
| QVQLVESGGGLVQAGGSLRLSCAASGLIIYRYGMGWYRQAPGKERELVAAISYSGSSTYYADSVKGRFTISRDNAKNTVYLQMISLKPEDTAVYYCAAQSTRPYPGRYYYWGQGTQVTVSS | high polyreactivity |
| QVQLVESGGGLVQAGGSLRLSCAASGLIIYYYAMGWYRQAPGKERELVAAISGSSGASTYYADSVKGRFTISRVNAKNTVYIQMNSLKPEDSAVYYCAADRGYWRYDYWGQGTQVTVSS | low polyreactivity |
| QVQLVESGGGLVQAGGSLRLSCAASGLILANYAMGWYRQAPGKERELVAAISSSGGSTYYADSVKGRFTISRDNAKNTVYLQMNSLKPEDTAVYYCAAYPLYRRRWTGDYWGQGTQVTVSS | high polyreactivity |
